Assay results from publication PMC9523886.
Read-outs that look alike come from different tables or passages of the source.

Assays:
Test in all cases: FCCS
[1] = target: GFP-DscIA (Discoidin I, paralog A, fused with GFP) (D. discoideum)
[2] = target: GFP-DscIA (Discoidin I, paralog A, fused with GFP) (D. discoideum); remark: listed apart in the source
[3] = target: GFP-DscIA (Discoidin I, paralog A, fused with GFP) (D. discoideum); remark: listed apart in the source

Substance: mCh-MyoII (mCherry-tagged Myosin II) (from UniProt P08799 1-2116) (natural protein)
- Kd [1]: 1900 nM
- Kd [2]: 2800 nM
- Kd [3]: 2900 nM
